Experiments:
[1] = biological target: human c-Met, cell membrane expressed (A549, BxPC-3, myeloma cells) (human) (UniProt P08581); assay: flow cytometry; competition with 1 nM biotinylated hHGF on A549 cells
[2] = biological target: cynomolgus c-Met expressed on BAF3 cells (cynomolgus monkey); assay: flow cytometry; competition with 0.5 nM biotinylated HGF on BAF3 cells with cynomolgus c-Met
[3] = biological target: human c-Met, cell membrane expressed (A549, BxPC-3, myeloma cells) (human) (UniProt P08581); assay: cell-based or functional assay

Chain of human c-Met, cell membrane expressed (A549, BxPC-3, myeloma cells) (human) (P08581 25-1390 limits assumed, form in doubt): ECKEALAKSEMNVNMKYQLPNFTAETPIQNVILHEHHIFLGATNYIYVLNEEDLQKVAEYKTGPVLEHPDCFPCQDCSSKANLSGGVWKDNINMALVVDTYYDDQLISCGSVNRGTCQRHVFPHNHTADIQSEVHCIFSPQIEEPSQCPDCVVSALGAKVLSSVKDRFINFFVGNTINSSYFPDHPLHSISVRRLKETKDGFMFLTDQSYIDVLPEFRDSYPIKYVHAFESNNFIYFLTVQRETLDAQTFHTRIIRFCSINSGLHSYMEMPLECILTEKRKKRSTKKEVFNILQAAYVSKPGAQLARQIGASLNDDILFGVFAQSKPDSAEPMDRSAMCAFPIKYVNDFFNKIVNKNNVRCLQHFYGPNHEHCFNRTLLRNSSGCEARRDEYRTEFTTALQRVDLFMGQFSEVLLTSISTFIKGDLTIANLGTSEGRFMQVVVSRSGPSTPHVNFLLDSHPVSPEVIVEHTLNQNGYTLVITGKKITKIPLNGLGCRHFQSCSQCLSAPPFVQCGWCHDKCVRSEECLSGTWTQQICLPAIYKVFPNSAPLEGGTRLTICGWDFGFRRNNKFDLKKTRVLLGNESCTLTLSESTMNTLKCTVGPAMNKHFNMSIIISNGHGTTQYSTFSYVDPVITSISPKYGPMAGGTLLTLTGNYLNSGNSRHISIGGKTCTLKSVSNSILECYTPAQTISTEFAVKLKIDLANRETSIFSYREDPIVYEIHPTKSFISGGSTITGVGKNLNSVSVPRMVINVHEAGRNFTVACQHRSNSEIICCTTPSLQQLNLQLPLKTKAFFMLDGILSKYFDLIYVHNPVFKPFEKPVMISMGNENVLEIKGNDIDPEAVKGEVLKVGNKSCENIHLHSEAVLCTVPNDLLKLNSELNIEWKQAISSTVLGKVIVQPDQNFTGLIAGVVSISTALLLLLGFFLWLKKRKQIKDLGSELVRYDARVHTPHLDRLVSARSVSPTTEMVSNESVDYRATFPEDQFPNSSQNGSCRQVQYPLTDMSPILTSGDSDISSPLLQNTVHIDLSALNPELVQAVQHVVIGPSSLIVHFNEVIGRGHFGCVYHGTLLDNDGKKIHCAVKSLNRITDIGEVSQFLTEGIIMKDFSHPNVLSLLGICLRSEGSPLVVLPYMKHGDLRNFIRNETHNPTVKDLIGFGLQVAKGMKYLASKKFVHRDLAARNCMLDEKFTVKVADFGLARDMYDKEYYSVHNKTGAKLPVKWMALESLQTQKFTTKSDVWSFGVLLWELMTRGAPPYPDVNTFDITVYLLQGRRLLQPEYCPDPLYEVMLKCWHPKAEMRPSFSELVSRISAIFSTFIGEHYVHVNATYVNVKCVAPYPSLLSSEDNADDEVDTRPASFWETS
Chain of cynomolgus c-Met expressed on BAF3 cells (cynomolgus monkey) (A0M8R7 25-1381 S170N/I621T limits assumed, form in doubt): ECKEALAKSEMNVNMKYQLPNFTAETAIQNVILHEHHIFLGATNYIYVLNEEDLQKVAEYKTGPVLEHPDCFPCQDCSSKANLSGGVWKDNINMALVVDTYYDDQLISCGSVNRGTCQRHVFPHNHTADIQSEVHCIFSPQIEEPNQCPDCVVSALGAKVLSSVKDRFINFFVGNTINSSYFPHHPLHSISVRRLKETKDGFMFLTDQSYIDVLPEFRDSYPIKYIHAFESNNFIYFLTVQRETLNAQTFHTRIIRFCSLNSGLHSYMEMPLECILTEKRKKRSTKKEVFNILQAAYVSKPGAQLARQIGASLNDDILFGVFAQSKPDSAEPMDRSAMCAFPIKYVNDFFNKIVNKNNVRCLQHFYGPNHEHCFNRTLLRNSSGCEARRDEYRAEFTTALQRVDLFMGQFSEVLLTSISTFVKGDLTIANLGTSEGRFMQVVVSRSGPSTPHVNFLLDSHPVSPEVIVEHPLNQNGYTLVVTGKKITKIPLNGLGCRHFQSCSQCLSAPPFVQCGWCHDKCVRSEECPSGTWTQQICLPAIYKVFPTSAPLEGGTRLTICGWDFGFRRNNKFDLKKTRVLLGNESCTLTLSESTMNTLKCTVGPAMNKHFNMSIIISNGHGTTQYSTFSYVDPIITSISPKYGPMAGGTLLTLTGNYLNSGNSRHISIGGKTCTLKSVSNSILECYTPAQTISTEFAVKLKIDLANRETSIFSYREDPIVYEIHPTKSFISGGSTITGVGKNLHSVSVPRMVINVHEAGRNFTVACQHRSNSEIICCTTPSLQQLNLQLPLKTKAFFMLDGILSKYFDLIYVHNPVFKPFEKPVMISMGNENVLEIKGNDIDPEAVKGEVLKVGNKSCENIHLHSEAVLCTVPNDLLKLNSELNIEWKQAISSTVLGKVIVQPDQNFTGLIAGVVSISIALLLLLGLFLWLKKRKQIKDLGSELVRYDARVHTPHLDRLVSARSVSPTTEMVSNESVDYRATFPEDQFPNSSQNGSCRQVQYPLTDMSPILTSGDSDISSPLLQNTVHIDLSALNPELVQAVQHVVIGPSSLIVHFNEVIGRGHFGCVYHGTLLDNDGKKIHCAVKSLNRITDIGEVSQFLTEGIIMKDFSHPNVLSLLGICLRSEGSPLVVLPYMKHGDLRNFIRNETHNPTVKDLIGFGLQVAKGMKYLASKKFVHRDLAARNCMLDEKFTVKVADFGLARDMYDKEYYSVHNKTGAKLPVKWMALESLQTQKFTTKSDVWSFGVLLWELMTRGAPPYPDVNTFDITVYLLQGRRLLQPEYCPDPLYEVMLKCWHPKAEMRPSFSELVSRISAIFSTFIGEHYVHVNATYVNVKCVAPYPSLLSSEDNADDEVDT

Substance	% inhibition [1] [%]	% inhibition [2] [%]	c-Met phosphorylation without HGF (agonistic activity), A549 cells [3] [nM]	% inhibition, HGF-dependent A549 cell migration [3] [%]	% inhibition, HGF-dependent c-Met phosphorylation, Experiment 1 [3] [%]	% inhibition, HGF-dependent c-Met phosphorylation, Experiment 2 [3] [%]	% inhibition, HGF-dependent proliferation of BxPC3 cells [3] [%]	IC50, HGF-dependent c-Met phosphorylation, experiment 1 [3] [nM]	IC50, HGF-dependent c-Met phosphorylation, experiment 2 [3] [nM]	IC50 ratio to 5D5 Fab, HGF-dependent A549 cell migration [3]	IC50 ratio to 5D5 Fab, HGF-dependent c-Met phosphorylation, Experiment 1 [3]	IC50 ratio to 5D5 Fab, HGF-dependent c-Met phosphorylation, Experiment 2 [3]	IC50 ratio to 5D5 Fab, HGF-dependent proliferation of BxPC3 cells [3]
anti-c-Met antibody 5D5	100	100	37										
anti-c-Met antibody fragment 5D5 Fab from mAb				112	96.4	95.9	94.8	10.4	9.09	1	1	1	1

Source: patent EP2747783B1
